Results on 4 substances are retold here after patent US20170073406A1.

Assay [1] concerns the target biotinylated His-tagged TGF-β1 LAP C4S (Homo sapiens (Human)) (UniProt P01137). Kind of assay: ELISA, neutravidin plate with biotinylated His-tagged TGF-β1 LAP C4S; antibody dilution 1:1,000; fluorescent secondary detection. (ELISA stands for enzyme-linked immunosorbent assay.)
For assay [2] the target is unchanged. Put plainly: ELISA, neutravidin plate with biotinylated His-tagged TGF-β1 LAP C4S; antibody dilution 1:5,000; fluorescent secondary detection.
Assay [3] has the same target. Put plainly: ELISA, neutravidin plate with biotinylated His-tagged TGF-β1 LAP C4S; antibody dilution 1:10,000; fluorescent secondary detection.
Assay [4] deals with human GARP-TGF-β1 LAP (membrane-bound GARP with TGF-β1 LAP, on 300.19 cells) (human) (UniProt Q14392). Put plainly: flow cytometry on 300.19 cells stably expressing the complex; MFI minus control 300.19 cells; one-site binding fit. (In general: Flow cytometry measures light scatter and fluorescence of single cells or particles in a stream.)
Assay [5] has as its target human GARP-proTGF-β1 (membrane-bound GARP with proTGF-β1, on transfected cells) (human) (UniProt Q14392). Described as above.
Assay [6] concerns the target human LTBP1 plus proTGF-β1, expressed by transiently transfected SW480 or HEK293 cells (human) (UniProt Q14766). Kind of assay: cell-based or functional assay.
Assay [7] has as its target human GARP-proTGF-β1 (membrane-bound GARP with proTGF-β1, on transfected cells) (human) (UniProt Q14392). Put plainly: cell-based or functional assay.
Assay [8] concerns the target TGF-β1 LAP complexed with sGARP (Homo sapiens (Human)) (UniProt Q14392). Put plainly: ELISA with increasing concentrations of MAB246.
The target of assay [9] is LTBP1-proTGFβ1 (protein complex of the ELISA of Example 35) (UniProt Q14766). Kind of assay: ELISA with increasing concentrations of MAB246.
The target of assay [10] is proTGF-β1 complexed with sGARP (Homo sapiens (Human)) (UniProt Q14392). Kind of assay: ELISA with increasing concentrations of MAB246.
Sequence of proTGF-β1 complexed with sGARP (Homo sapiens (Human)) (Q14392 18-627 limits assumed, chain 1 of 2): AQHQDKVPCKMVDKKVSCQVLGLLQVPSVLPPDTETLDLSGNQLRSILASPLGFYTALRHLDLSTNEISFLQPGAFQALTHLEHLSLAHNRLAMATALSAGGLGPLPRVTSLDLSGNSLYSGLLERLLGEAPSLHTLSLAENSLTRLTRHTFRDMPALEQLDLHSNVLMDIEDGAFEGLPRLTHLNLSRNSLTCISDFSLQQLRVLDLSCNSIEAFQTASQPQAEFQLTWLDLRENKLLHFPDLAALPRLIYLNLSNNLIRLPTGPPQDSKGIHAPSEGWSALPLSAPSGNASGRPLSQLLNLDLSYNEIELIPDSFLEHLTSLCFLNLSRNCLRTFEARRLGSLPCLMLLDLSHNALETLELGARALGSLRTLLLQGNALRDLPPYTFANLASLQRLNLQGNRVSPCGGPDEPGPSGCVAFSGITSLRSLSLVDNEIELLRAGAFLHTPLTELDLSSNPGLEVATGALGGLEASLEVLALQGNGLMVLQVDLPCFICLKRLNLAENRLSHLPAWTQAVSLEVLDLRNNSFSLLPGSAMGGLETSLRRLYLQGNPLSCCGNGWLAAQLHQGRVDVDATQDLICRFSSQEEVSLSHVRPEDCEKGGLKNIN
Sequence of proTGF-β1 complexed with sGARP (Homo sapiens (Human)) (chain, as listed by the source limits assumed, chain 2 of 2): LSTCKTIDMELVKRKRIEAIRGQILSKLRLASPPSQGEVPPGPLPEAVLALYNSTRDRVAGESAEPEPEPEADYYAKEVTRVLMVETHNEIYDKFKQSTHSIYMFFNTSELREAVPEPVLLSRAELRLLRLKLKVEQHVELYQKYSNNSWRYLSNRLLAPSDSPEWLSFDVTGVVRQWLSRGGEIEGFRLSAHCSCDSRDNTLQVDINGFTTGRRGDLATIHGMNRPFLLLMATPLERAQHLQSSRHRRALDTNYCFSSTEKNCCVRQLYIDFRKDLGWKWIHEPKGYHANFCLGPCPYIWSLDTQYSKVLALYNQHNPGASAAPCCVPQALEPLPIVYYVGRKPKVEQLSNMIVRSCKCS

Sequence of human LTBP1 plus proTGF-β1, expressed by transiently transfected SW480 or HEK293 cells (human) (Q14766 347-1721 limits assumed, chain 1 of 2): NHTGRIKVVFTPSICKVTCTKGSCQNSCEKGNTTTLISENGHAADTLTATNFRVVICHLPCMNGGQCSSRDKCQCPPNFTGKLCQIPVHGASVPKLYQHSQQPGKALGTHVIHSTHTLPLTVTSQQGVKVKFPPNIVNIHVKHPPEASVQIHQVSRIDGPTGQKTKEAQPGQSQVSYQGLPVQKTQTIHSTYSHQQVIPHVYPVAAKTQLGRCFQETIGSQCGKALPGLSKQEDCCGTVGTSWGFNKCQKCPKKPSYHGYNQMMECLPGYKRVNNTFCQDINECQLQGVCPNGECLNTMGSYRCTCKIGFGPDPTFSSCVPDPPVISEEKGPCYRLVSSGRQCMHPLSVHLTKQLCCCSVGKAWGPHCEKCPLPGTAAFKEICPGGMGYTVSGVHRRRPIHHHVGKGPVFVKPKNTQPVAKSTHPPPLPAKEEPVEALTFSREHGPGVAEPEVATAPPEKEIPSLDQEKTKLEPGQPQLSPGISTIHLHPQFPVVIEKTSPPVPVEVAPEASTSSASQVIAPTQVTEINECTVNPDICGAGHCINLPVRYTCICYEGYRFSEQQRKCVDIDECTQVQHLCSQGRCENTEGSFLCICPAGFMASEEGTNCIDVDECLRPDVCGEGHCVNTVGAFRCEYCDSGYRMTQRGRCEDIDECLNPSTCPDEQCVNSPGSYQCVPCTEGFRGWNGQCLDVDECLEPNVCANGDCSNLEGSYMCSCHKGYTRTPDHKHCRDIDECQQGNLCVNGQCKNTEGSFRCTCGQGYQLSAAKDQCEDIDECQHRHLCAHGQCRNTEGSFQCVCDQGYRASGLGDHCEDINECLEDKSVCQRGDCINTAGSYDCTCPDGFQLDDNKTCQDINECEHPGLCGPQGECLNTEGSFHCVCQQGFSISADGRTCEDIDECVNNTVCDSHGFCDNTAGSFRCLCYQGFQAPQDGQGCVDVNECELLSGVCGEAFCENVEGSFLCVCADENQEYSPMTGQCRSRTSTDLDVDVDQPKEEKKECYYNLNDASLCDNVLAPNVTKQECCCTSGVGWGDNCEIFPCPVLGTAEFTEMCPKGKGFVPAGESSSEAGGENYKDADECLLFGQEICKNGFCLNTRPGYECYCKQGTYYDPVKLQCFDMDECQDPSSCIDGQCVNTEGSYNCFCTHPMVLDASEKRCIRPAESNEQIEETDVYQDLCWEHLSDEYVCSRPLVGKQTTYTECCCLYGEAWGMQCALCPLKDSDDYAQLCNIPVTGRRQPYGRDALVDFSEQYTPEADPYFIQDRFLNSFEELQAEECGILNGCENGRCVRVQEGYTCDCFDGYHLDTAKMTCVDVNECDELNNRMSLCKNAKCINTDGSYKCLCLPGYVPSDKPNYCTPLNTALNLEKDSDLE
Sequence of human GARP-proTGF-β1 (membrane-bound GARP with proTGF-β1, on transfected cells) (human) (Q14392 20-662 limits assumed, chain 1 of 2): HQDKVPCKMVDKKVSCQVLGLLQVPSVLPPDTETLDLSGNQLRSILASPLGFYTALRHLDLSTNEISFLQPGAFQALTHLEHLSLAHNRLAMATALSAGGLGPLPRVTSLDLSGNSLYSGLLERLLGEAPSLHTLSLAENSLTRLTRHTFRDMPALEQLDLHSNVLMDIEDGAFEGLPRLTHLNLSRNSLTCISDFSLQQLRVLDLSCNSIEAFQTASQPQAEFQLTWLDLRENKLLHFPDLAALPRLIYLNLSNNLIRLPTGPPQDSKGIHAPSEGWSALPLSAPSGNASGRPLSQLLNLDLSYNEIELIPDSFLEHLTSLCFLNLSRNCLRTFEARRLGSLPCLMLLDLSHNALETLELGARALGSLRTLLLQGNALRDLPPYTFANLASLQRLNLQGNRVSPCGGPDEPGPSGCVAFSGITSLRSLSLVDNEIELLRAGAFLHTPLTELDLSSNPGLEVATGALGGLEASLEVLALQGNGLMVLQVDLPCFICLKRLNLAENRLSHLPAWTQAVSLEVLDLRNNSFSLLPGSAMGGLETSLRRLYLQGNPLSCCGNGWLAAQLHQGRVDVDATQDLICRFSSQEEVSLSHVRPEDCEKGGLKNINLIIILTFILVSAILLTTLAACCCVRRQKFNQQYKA
Sequence of biotinylated His-tagged TGF-β1 LAP C4S (Homo sapiens (Human)) (P01137 other isoform, or with tags, fused parts or gaps limits assumed): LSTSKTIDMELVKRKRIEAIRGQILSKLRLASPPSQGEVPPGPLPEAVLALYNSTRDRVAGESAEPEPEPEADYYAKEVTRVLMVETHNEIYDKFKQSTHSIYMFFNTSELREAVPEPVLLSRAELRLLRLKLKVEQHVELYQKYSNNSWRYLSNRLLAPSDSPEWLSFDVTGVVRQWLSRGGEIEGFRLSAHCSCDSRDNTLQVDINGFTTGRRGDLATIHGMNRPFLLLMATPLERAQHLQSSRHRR
Sequence of human GARP-TGF-β1 LAP (membrane-bound GARP with TGF-β1 LAP, on 300.19 cells) (human) (Q14392 20-662 limits assumed, chain 1 of 2): as the sequence (Q14392 20-662 limits assumed, chain 1 of 2) above
Sequence of human GARP-TGF-β1 LAP (membrane-bound GARP with TGF-β1 LAP, on 300.19 cells) (human) (chain, as listed by the source limits assumed, chain 2 of 2): as the sequence (P01137 other isoform, or with tags, fused parts or gaps limits assumed) above, with S4C counted along it
Sequence of TGF-β1 LAP complexed with sGARP (Homo sapiens (Human)) (Q14392 18-627 limits assumed, chain 1 of 2): as the sequence (Q14392 18-627 limits assumed, chain 1 of 2) above
Sequence of TGF-β1 LAP complexed with sGARP (Homo sapiens (Human)) (chain, as listed by the source limits assumed, chain 2 of 2): as the sequence (P01137 other isoform, or with tags, fused parts or gaps limits assumed) above, with S4C counted along it
Sequence of LTBP1-proTGFβ1 (protein complex of the ELISA of Example 35) (Q14766 347-1721 limits assumed, chain 1 of 2): as the sequence (Q14766 347-1721 limits assumed, chain 1 of 2) above

Regarding “9016.2 (mouse monoclonal anti-TGF-β LAP antibody, Abcam, Cambridge, UK)”, the RFU in assay [1] stood at 14600 RFU; in [2], 4540 RFU; in assay [3], 3310 RFU.
Usually Kd stands for the free concentration of one partner at which half of the binding sites on the other are occupied at equilibrium, for simple one-to-one binding. Higher therefore signals lower affinity. Regarding “MAB246 (R&D Systems, Minneapolis, Minn.), mouse IgG1 anti-TGF-β1 LAP antibody, clone 27235”, the RFU in assay [1] came to 26800 RFU; in assay [2], 24900 RFU; in [3] it was 18800 RFU. Further, the Kd in assay [4] stood at 0.08 µg/mL; in [5] it was 35.1 µg/mL; in assay [8] it was 0.14 nM; in assay [9], 0.24 nM; in [10], 0.91 nM. Besides, in [6], the RLUs (TMLC luciferase), with αvβ6-expressing cells and 20 or 50 µg/ml MAB246 was found to be 3.5 fold. The reporter activity (TMLC luciferase, RLU), 20 µg/ml MAB246 in [6] was determined as 2 fold. Besides, in assay [6], the reporter activity (TMLC luciferase, RLU), 50 µg/ml MAB246 is above 2.5 fold. Moreover, the reporter activity (TMLC luciferase, RLU), 20 or 50 µg/ml MAB246 in assay [7] is below 2 fold.
On to “MAB2463 (R&D Systems, Minneapolis, Minn.), mouse IgG1 anti-TGF-β1 LAP antibody, clone 27232”, for which the RFU stood at 57500 RFU in [1], 42100 RFU in assay [2] and 32000 RFU in [3]. Moreover, the Kd is 0.11 µg/mL in assay [4] and 0.19 µg/mL in assay [5].
As for “αvβ6 integrin (on cells, e.g. SW480-β6 cells) (from UniProt P06756 31-1048; P18564 22-788) (receptor)”, in [6], the RLUs (TMLC luciferase), no antibody is 2.5 fold.
